Measurements: US20110172391A1 (published 2011)

Columns and labels:
[1] = molecular target: N-precursor protein MINH (Synechocystis sp. PCC6803); assay: cell-based or functional assay
[2] = molecular target: precursor protein MINC (Synechocystis sp. PCC6803); assay: cell-based or functional assay

GVFVHNSADYKDDDDKSGCLAGDTLITLAS [synthetic peptide (ICF)]
rate constant (kobs) of the trans-splicing reaction, pseudo-first order, 10-fold molar excess of ICF [1]: 6.9e-05 s⁻¹

GVFVHASG [8-aa Ic peptide]
fold increase of the N-cleavage rate constant with 10 mM DTT against the Ic peptide alone [2]: ~2 fold
fold increase of the N-cleavage rate constant with 100 mM DTT against the Ic peptide alone [2]: ~10 fold

GVFVHN [6-aa Ic peptide]
N-cleavage rate against the longer Ic peptide (with 10 mM or 100 mM DTT) [2]: ~2 fold slower
